Source: patent US20090181025A1 (published 2009)

B1: Flag tagged DAP10 expressed in B300.19 transfectants (other, UniProt Q9QUJ0 18-79, looked up)
chain: SQTSAGSCSGCGTLSLPLLAGLVAADAVMSLLIVGVVFVCMRPHGRPAQEDGRVYINMPGRG
notes: GenBank AF072846 is printed; The fragment limits are set only by the primers; not shown: N-terminal Flag tag from vector pMXII IRES-Puro
B2: Flag tagged DAP12 expressed in B300.19 transfectants (other, UniProt O54885 22-114, looked up)
chain: LSPVQAQSDTFPRCDCSSVSPGVLAGIVLGDLVLTLLIALAVYSLGRLVSRGQGTAEGTRKQHIAETESPYQELQGQRPEVYSDLNTQRQYYR
notes: GenBank NM-011662 is printed; The fragment limits are set only by the primers; not shown: N-terminal Flag tag from vector pMXII IRES-Puro
B3: FcRγ chain endogenous in bone marrow-derived mature dendritic cells (other, mouse, UniProt P20491 19-86, looked up)
chain: LGEPQLCYILDAVLFLYGIVLTLLYCRLKIQVRKAAIASREKADAVYTGLNTRSQETYETLKHEKPPQ
notes: Native protein from lysate of mouse dendritic cells
B4: mouse TARM-L (TARM ligand) expressed on B300.19 cells (ligand)
chain: LEISADAHVRGYVGEKIKLKCTFKSSSDVTDKLTIDWTYRPPSSSRTESIFHYQSFQYPTTAGTFRDRISWAGNVYKGDASISISNPTLKDNGTFSCAVKNPPDVYHNIPLTELTVTERGFGTMLSSVALLSILVFVPSAVVVILLLVRMGRKATGVQKRSRSGYKKSSIEVSDDTDQEDSNDCMTRLCVRCAECLDSDYEEEAY
notes: also called mTARM-L; mTARM-L candidate

Tests used:
[1] = target: T1, mouse TARM protein, isoform m1, expressed on B300.19 cells (mouse, UniProt B6A8R8 17-288); experiment: co-immunoprecipitation from B300.19 transfectants (1% digitonin lysate): anti-Flag IP, immunoblot with anti-mTARM #6
T1 construct: In the co-immunoprecipitation the cells were solubilized in 1% digitonin; also called mTARM; mTARM-expressing cells
T1 sequence: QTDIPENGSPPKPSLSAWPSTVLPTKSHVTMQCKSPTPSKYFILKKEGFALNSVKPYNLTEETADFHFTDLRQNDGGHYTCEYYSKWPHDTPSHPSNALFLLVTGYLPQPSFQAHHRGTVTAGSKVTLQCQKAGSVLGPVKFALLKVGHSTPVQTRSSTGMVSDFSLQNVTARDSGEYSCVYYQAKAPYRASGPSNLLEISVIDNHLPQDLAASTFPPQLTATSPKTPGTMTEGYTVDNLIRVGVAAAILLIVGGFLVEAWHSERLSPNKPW
Experimental: B300.19 transfectants were solubilized in a cell lysis buffer containing 1% digitonin (1% digtonin/50 mM Tris-HCl (pH 7.5)/150 mM NaCl/5 mM NaF/1 mM orthovanadate/Complete™ (Roche)). Immunoprecipitation was carried out using an anti-Flag antibody, and immunoblot analysis was then carried out using anti-mTARM antibody #6.

[2] = target: T2, CD54 endogenous in bone marrow-derived mature dendritic cells (mouse, UniProt P13597 28-537); experiment: co-immunoprecipitation from mature dendritic cells (1% digitonin lysate): anti-CD54 IP, immunoblot with anti-FcRγ chain antibody
T2 construct: Control membrane protein in the co-immunoprecipitation; also called another cell membrane protein CD54
Experimental: Moreover, bone marrow-derived mature dendritic cells were solubilized in a cell lysis buffer containing 1% digitonin. Immunoprecipitation was carried out using rat IgG as a negative control, anti-mTARM antibody #21, an anti-CD54 antibody and an anti-FcRγ chain antibody, and immunoblot analysis was then carried out using an anti-FcRγ chain antibody.

[3] = target: AP protein used as a negative control (human, UniProt P05187 23-511); experiment: FACS of AP protein on mTARM-L-expressing B300.19 cells, detected with anti-PLAP antibody
Chain of AP protein used as a negative control (P05187 23-511): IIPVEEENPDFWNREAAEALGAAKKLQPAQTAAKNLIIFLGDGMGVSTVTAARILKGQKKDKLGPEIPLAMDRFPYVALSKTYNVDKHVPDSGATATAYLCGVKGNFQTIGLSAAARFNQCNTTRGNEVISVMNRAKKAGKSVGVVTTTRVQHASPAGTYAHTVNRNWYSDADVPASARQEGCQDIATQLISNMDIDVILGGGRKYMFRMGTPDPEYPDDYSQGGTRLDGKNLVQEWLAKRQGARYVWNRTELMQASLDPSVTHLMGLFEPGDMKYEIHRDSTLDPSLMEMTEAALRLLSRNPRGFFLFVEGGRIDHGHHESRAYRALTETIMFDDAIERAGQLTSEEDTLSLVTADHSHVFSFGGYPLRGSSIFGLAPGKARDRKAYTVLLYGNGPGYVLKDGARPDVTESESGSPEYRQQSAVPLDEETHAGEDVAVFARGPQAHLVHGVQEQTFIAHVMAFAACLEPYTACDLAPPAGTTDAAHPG

T2 sequence (P13597 28-537 limits assumed): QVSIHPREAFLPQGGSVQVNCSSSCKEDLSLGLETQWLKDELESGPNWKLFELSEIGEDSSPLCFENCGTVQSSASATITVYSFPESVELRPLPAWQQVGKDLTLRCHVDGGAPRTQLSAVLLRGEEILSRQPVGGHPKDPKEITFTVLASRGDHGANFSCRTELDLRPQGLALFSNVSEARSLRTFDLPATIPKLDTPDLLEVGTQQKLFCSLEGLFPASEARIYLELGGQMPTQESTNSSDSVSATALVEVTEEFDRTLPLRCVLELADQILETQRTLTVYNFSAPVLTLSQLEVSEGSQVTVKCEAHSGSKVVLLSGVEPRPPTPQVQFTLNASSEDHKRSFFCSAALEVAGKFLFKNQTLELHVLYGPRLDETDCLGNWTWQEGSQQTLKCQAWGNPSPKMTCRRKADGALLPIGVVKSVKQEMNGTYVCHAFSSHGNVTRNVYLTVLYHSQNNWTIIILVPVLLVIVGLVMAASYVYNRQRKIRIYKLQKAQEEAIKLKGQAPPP

| Binder | binding result [1] | also measured |
| --- | --- | --- |
| B1 | no binding | – |
| B2 | no binding | – |
| B3 | – | binding result [2]: no binding |
| B4 | – | binding result [3]: no binding (tested: 30 µg/ml (method of Example 5)) |
